From patent publication US6897197 (ALBERT EINSTEIN COLLEGE OF MEDICINE OF YESHIVA UNIVERSITY, dated 2005)

Key:
[1] = target: T1, human MDM2, full length (CMV driven expression construct pCHDM1A) (human, UniProt Q00987 1-491); test: low stringency co-immunoprecipitation (anti-FLAG IP, anti-MDM2 Western blot), 293T cells transfected with MDM2 and p19FLAG
T1 construct: Expressed in transfected cells; also called HDM-2
Protocol: (§1) For immunoprecipitations, subconfluent 293T cells were transfected with 3 µg each of the appropriate expression constructs shown in FIG. 3, and 80 µg of Lipofectamine reagent (Gibco BRL). […] Untransfected 3T3-DM cells were lysed in a low stringency buffer as above.

[2] = target: T2, endogenous MDM2 of untransfected 3T3DM cells (UniProt P23804 1-489); test: anti-p19^ARF immunoprecipitation, anti-MDM2 Western blot, untransfected 3T3DM cells
T2 construct: 3T3DM is a mouse cell line; Detected with antibody 2A10; also called p90/p85
T2 sequence (P23804 whole entry): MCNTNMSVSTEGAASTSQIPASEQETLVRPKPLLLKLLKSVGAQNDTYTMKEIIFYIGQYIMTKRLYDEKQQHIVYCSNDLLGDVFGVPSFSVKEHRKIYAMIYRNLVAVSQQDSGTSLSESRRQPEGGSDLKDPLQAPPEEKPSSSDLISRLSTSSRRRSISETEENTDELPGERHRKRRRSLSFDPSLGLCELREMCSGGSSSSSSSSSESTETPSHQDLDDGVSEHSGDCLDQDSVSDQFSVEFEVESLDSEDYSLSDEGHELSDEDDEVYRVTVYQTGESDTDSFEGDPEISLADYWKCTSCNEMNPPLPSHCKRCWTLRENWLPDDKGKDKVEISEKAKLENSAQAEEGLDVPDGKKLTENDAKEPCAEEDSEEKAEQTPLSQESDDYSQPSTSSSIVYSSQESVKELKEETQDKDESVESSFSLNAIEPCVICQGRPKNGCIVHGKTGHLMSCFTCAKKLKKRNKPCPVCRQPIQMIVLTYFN
Protocol: as §1

T1 sequence (Q00987 whole entry): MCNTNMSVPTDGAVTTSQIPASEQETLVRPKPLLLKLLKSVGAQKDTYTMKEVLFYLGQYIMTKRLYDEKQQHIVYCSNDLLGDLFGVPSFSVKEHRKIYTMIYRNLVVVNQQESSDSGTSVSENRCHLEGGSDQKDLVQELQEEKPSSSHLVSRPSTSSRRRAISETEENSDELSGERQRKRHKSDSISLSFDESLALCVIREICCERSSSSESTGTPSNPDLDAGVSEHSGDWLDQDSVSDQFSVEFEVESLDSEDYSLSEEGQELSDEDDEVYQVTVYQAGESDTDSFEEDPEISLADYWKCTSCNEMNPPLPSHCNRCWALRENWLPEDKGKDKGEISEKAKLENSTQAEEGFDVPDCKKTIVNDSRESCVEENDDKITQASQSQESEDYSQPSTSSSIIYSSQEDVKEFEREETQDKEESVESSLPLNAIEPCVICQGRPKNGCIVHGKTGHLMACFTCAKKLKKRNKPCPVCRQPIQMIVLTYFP

Binder | binding result [1] | binding result [2]
FLAG epitope-tagged p19^ARF protein (other, mouse, UniProt Q64364 1-169, looked up, not shown: small tags and cut ends, Expressed from pcDNA in transfected 293T, SAOS2 or HeLa cells; also called p19^FLAG; p19FLAG) MGRRFLVTVRIQRAGRPLQERVFLVKFVRSRRPRTASCALAFVNMLLRLERILRRGPHRNPGPGDDDGQRSRSSSSAQLRCRFELRGPHYLLPPGARRSAGRLPGHAGGAARVRGSAGCARCLGSPAARLGPRAGTSRHRAIFAFRWVLFVFRWVVFVYRWERRPDRRA | binds | 
endogenous p19^ARF of untransfected 3T3DM cells (other, UniProt Q64364 1-169, looked up, Immunoprecipitated with rabbit polyclonal anti-p19^ARF antiserum) MGRRFLVTVRIQRAGRPLQERVFLVKFVRSRRPRTASCALAFVNMLLRLERILRRGPHRNPGPGDDDGQRSRSSSSAQLRCRFELRGPHYLLPPGARRSAGRLPGHAGGAARVRGSAGCARCLGSPAARLGPRAGTSRHRAIFAFRWVLFVFRWVVFVYRWERRPDRRA |  | binds
